In patent US20260167721A1:

Legend:
[1] = biological target: human CD3 (on the surface of Jurkat wild-type cells and of human Pan T cells) (human) (UniProt P07766); assay: flow cytometry, isotype control antibody on Jurkat WT cells
RT3-T3.5 (TCR-KO) cells [2] = assay: flow cytometry, isotype control antibody on RT3-T3.5 (TCR-KO) negative control cells
[3] = biological target: human CD3 (on the surface of Jurkat wild-type cells and of human Pan T cells) (human) (UniProt P07766); assay: flow cytometry, isotype control antibody on human Pan T cells
[4] = biological target: human CD3 (on the surface of Jurkat wild-type cells and of human Pan T cells) (human) (UniProt P07766); assay: flow cytometry, control antibody on Jurkat WT cells
RT3-T3.5 (TCR-KO) cells [5] = assay: flow cytometry, control antibody on RT3-T3.5 (TCR-KO) negative control cells
[6] = biological target: human CD3 (on the surface of Jurkat wild-type cells and of human Pan T cells) (human) (UniProt P07766); assay: flow cytometry, control antibody on human Pan T cells
[7] = biological target: Jurkat TCRb knockout cells; assay: flow cytometry on Jurkat KO (TCRb knockout) cells, negative control, antibody at 10 ug/ml
[8] = biological target: Jurkat TCRb knockout cells; assay: flow cytometry on Jurkat KO (TCRb knockout) cells, negative control, antibody at 1 ug/ml
[9] = biological target: human CD3 (TCR/CD3 complex on the cell surface) (human) (UniProt P07766); assay: flow cytometry, Jurkat WT cells, 10 ug/mL
Chain of human CD3 (TCR/CD3 complex on the cell surface) (human) (P07766 23-207, chain 1 of 4): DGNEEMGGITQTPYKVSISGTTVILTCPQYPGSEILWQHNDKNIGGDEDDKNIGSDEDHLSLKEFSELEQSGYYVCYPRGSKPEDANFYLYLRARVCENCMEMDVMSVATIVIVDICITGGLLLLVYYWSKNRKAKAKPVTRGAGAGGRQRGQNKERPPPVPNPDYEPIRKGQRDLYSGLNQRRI
Chain of human CD3 (TCR/CD3 complex on the cell surface) (human) (P09693 23-182, chain 2 of 4, further chain): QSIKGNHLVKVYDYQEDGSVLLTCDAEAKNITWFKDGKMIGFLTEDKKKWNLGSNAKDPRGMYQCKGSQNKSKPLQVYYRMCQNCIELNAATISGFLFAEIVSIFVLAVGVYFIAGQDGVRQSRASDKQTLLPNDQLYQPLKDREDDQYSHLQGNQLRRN
Chain of human CD3 (TCR/CD3 complex on the cell surface) (human) (P04234 22-171, chain 3 of 4, further chain): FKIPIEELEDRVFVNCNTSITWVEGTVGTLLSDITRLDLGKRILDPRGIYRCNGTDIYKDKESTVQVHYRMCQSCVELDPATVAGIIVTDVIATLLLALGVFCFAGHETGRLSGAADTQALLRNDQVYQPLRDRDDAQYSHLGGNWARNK
Chain of human CD3 (TCR/CD3 complex on the cell surface) (human) (P20963 22-164, chain 4 of 4, further chain): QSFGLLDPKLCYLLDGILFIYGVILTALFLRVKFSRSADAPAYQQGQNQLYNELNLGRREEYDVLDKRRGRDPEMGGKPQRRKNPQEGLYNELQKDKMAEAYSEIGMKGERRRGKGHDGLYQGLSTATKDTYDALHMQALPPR

[10] = biological target: CD3 on Jurkat wild-type cells (UniProt P07766); assay: flow cytometry on Jurkat WT cells, antibody at 1 ug/ml
Chain of CD3 on Jurkat wild-type cells (P07766 23-207, chain 1 of 3): as the sequence (P07766 23-207, chain 1 of 4) above
Chain of CD3 on Jurkat wild-type cells (P04234 22-171, chain 2 of 3, further chain): as the sequence (P04234 22-171, chain 3 of 4, further chain) above
Chain of CD3 on Jurkat wild-type cells (P09693 23-182, chain 3 of 3, further chain): as the sequence (P09693 23-182, chain 2 of 4, further chain) above

[11] = biological target: human CD3 (TCR/CD3 complex on the cell surface) (human) (UniProt P07766); assay: flow cytometry, gMFI Jurkat WT over Jurkat TCRb KO, 10 ug/mL
[12] = biological target: CD3 on Jurkat wild-type cells (UniProt P07766); assay: flow cytometry on Jurkat WT cells, antibody at 10 ug/ml
[13] = biological target: human CD3 (TCR/CD3 complex on the cell surface) (human) (UniProt P07766); assay: flow cytometry, Pan-T cells, 10 ug/mL
CD33 on KILR-HL60 cells [14] = biological target: CD33 on KILR-HL60 cells (UniProt P20138); assay: flow cytometry on KILR-HL60 (CD33 expressing) cells, antibody at 10 ug/ml
Chain of CD33 on KILR-HL60 cells (P20138 18-364 limits assumed): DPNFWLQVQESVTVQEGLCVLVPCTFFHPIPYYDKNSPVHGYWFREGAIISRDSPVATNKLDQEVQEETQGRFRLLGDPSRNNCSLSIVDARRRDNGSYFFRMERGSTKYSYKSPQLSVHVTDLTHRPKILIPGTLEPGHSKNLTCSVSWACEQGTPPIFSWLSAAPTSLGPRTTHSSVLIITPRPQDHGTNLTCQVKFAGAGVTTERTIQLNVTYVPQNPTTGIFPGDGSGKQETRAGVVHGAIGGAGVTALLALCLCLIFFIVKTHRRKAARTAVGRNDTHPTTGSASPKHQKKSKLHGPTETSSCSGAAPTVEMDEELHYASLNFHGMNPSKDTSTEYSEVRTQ

[15] = biological target: Jurkat TCRb knockout cells; assay: flow cytometry, Jurkat KO (TCRb knockout) cells, negative control, 1 ug/mL
[16] = biological target: human CD3 (TCR/CD3 complex on the cell surface) (human) (UniProt P07766); assay: flow cytometry, gMFI Jurkat WT over Jurkat TCRb KO, 1 ug/mL
[17] = biological target: human CD3 (TCR/CD3 complex on the cell surface) (human) (UniProt P07766); assay: flow cytometry, Pan-T cells, 1 ug/mL
[18] = biological target: human CD3 (TCR/CD3 complex on the cell surface) (human) (UniProt P07766); assay: flow cytometry, Jurkat WT cells, 1 ug/mL
[19] = biological target: Jurkat TCRb knockout cells; assay: flow cytometry, Jurkat KO (TCRb knockout) cells, negative control, 10 ug/mL
CD33 on KILR-HL60 cells [20] = biological target: CD33 on KILR-HL60 cells (UniProt P20138); assay: flow cytometry on KILR-HL60 (CD33 expressing) cells, antibody at 1 ug/ml
[21] = biological target: human CD3 (on human Pan-T cells or donor PBMC) (human) (UniProt P07766); assay: cell-based or functional assay
Chain of human CD3 (on human Pan-T cells or donor PBMC) (human) (P07766 23-207, chain 1 of 4): as the sequence (P07766 23-207, chain 1 of 4) above
Chain of human CD3 (on human Pan-T cells or donor PBMC) (human) (P04234 22-171, chain 2 of 4, further chain): as the sequence (P04234 22-171, chain 3 of 4, further chain) above
Chain of human CD3 (on human Pan-T cells or donor PBMC) (human) (P09693 23-182, chain 3 of 4, further chain): as the sequence (P09693 23-182, chain 2 of 4, further chain) above
Chain of human CD3 (on human Pan-T cells or donor PBMC) (human) (P20963 22-164, chain 4 of 4, further chain): as the sequence (P20963 22-164, chain 4 of 4, further chain) above

Chain of Gemtuzumab (antibody) (HC): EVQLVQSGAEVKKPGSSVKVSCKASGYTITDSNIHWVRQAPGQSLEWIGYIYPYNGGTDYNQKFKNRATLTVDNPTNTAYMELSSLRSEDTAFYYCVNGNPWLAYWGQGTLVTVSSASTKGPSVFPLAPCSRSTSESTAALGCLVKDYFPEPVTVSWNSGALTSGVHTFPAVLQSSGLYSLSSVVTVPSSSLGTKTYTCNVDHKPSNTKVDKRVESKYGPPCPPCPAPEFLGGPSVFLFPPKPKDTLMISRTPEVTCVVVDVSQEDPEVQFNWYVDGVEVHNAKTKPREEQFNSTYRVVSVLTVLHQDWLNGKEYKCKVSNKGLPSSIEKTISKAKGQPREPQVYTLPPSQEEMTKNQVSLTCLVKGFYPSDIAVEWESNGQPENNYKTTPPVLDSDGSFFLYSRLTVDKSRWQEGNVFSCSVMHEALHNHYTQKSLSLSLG
Chain of Gemtuzumab (antibody) (LC): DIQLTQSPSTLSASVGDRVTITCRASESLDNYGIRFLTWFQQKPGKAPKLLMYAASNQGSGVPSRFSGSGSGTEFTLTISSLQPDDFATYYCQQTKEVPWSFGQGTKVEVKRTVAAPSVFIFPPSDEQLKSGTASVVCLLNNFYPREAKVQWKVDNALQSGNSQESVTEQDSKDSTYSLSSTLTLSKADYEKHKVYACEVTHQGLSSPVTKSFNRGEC
Chain of human CD3 (on the surface of Jurkat wild-type cells and of human Pan T cells) (human) (P07766 23-207, chain 1 of 4): as the sequence (P07766 23-207, chain 1 of 4) above
Chain of human CD3 (on the surface of Jurkat wild-type cells and of human Pan T cells) (human) (P09693 23-182, chain 2 of 4, further chain): as the sequence (P09693 23-182, chain 2 of 4, further chain) above
Chain of human CD3 (on the surface of Jurkat wild-type cells and of human Pan T cells) (human) (P04234 22-171, chain 3 of 4, further chain): as the sequence (P04234 22-171, chain 3 of 4, further chain) above
Chain of human CD3 (on the surface of Jurkat wild-type cells and of human Pan T cells) (human) (P20963 22-164, chain 4 of 4, further chain): as the sequence (P20963 22-164, chain 4 of 4, further chain) above

| gMFI [4] [gMFI] | gMFI (RT3-T3.5 (TCR-KO) cells [5]) [gMFI] | gMFI [6] [gMFI] | flow cytometry signal [7] | flow cytometry signal [8] | gMFI [9] [gMFI] | flow cytometry signal [10] | Jurkat WT/KO (Fold) [11] [fold] | flow cytometry signal [12] | % Positive [13] [%] | gMFI [13] [gMFI] | flow cytometry signal (CD33 on KILR-HL60 cells [14]) | gMFI [15] [gMFI] | Jurkat WT/KO (Fold) [16] [fold] | % Positive [17] [%] | gMFI [17] [gMFI] | gMFI [18] [gMFI] | gMFI [19] [gMFI] | flow cytometry signal (CD33 on KILR-HL60 cells [20]) | Substance | also measured |
| --- | --- | --- | --- | --- | --- | --- | --- | --- | --- | --- | --- | --- | --- | --- | --- | --- | --- | --- | --- | --- |
|  |  |  |  |  |  |  |  |  |  |  |  |  |  |  |  |  |  |  | Isotype Control (antibody) | gMFI [1]: 1710 gMFI; gMFI (RT3-T3.5 (TCR-KO) cells [2]): 1820 gMFI; gMFI [3]: 4370 gMFI |
| 114000 | 7160 | 333000 |  |  |  |  |  |  |  |  |  |  |  |  |  |  |  |  | SP34 (antibody) |  |
|  |  |  | 2620 | 2830 | 1740 | 2700 | 0.9 | 2390 | 0.8 | 1780 | 30200 | 2020 | 0.9 | 0.8 | 1860 | 1770 | 1860 | 34300 | hIgG1 (antibody) |  |
| 102000 | 5410 | 359000 |  |  |  |  |  |  |  |  |  |  |  |  |  |  |  |  | UCHT1 (antibody) |  |
| 72300 | 4220 | 300000 | 3680 | 5180 | 45200 | 82100 | 11.1 | 35800 | 99.9 | 394000 | 11600 | 4900 | 11 | 99.6 | 603000 | 54000 | 4070 | 14800 | OKT3 (antibody) |  |
|  |  |  |  |  |  |  |  |  |  |  |  |  |  |  |  |  |  |  | Gemtuzumab (antibody) | Cytokine Release Assay (IFNγ), Donor 0, gMFI max [21]: 5340 gMFI; Cytokine Release Assay (IFNγ), Donor 1, gMFI max [21]: 4630 gMFI; Cytokine Release Assay (IFNγ), Donor 2, gMFI max [21]: 3580 gMFI; Cytokine Release Assay (IFNγ), Donor 3, gMFI max [21]: 4480 gMFI |
